Bridge positions count the residues as written; N and C are the ends. Square brackets hold non-standard residues; d marks the D form. Trp(7-Ph) = N[C@@H](Cc1c[nH]c2c(-c3ccccc3)cccc12)C(=O)O; Trp(5-CN) = N#Cc1ccc2[nH]cc(C[C@H](N)C(=O)O)c2c1; Trp(7-Me) = Cc1cccc2c(C[C@H](N)C(=O)O)c[nH]c12; 2Nal = N[C@@H](Cc1ccc2ccccc2c1)C(=O)O; AEF = NCCOc1ccc(C[C@H](N)C(=O)O)cc1; dNMeY = CN[C@H](Cc1ccc(O)cc1)C(=O)O; 3Pal = N[C@@H](Cc1cccnc1)C(=O)O; Cit = NC(=O)NCCC[C@H](N)C(=O)O; αMeL = CC(C)C[C@](C)(N)C(=O)O; Pen = CC(C)(S)[C@H](N)C(=O)O; Trp(5-Ca) = not defined here; αMeK = C[C@](N)(CCCCN)C(=O)O; Ac5c = NC1(C(=O)O)CCCC1; Thp = NC1(C(=O)O)CCOCC1; Abu = CC[C@H](N)C(=O)O; Sar = CNCC(=O)O
Molecular target: T1, human IL-23R (human, UniProt Q5VWK5 24-629)
T1 sequence (looked up): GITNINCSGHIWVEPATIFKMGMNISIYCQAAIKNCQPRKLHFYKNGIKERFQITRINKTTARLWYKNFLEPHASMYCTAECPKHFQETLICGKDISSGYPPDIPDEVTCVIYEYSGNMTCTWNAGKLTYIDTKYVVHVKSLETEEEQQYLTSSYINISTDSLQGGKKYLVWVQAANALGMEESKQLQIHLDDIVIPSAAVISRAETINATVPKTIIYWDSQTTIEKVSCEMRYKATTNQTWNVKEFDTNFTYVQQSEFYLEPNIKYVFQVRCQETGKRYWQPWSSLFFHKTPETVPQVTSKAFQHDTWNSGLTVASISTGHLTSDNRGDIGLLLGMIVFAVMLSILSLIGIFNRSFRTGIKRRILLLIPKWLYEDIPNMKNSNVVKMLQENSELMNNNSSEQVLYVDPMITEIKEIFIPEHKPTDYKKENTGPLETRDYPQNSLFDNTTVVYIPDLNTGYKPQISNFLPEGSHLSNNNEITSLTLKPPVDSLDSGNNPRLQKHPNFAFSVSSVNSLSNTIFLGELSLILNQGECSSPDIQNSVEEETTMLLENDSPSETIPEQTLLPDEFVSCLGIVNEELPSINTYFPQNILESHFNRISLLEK
Assay: cell-based or functional assay

Binder	PBMC pSTAT3 IC50	pStat3 HTRF IC50
Ac-[Abu]QT[Trp(7-Me)]K(Ac)C[AEF][2Nal][αMeK]K(Ac)N[dK][Sar]-NH2 (thioether 1-6) [Peptide No. 17]	0.791 nM	
Ac-[Abu]QT[Trp(7-Ph)]K(Ac)C[AEF][2Nal][αMeK]K(Ac)N[dK][Sar]-NH2 (thioether 1-6) [Peptide No. 18]	1.1 nM	
Ac-[Pen]NT[Trp(7-Me)][Cit][Pen][AEF][2Nal][αMeL]K(Ac)N[dH]-NH2 (disulfide 1-6; SMILES CC(=O)NCCCC[C@H](NC(=O)[C@](C)(CC(C)C)NC(=O)[C@H](Cc1ccc2ccccc2c1)NC(=O)[C@H](Cc1ccc(OCCN)cc1)NC(=O)[C@H]1NC(=O)[C@H](CCCNC(N)=O)NC(=O)[C@H](Cc2c[nH]c3c(C)cccc23)NC(=O)[C@H]([C@@H](C)O)NC(=O)[C@H](CC(N)=O)NC(=O)[C@@H](NC(C)=O)C(C)(C)SSC1(C)C)C(=O)N[C@@H](CC(N)=O)C(=O)N[C@H](Cc1c[nH]cn1)C(N)=O) [Peptide No. 85]	3 nM	
RXQTWQCFXXENNY (Ac-[(D)Arg]-[Abu]-Q-T-W-Q-[Cys]-Phe[4-(2-aminoethoxy)]-[2-Nal]-[THP]-E-N-N-[(D)NMeTyr]-NH2; Abu-Cys thioether) [Peptide No. 8]	1 nM	
Ac-[Pen]NT[Trp(5-Ca)]K(Ac)[Pen][AEF][2Nal][Thp]EN[3Pal][Sar]-NH2 (disulfide 1-6; reading uncertain; also: printed as Ac-[Pen]-N-T-[W(5-Ca)]-[Lys(Ac)]-[Pen]-Phe[4-(2-aminoethoxy)]-[2-Nal]-[THP]-E-N-[3Pal]-[Sarc]-NH2; Pen-Pen disulfide) [Peptide No. 160]		> 10 nM
Ac-[Pen]NT[Trp(7-(3-carboxamidophenyl))]K(Ac)[Pen][AEF][2Nal][Thp]EN[3Pal][Sar]-NH2 (disulfide 1-6 (inferred)) [Peptide No. 142]		90 pM
Ac-[Pen]NT[Trp(7-Ph)]K(Ac)[Pen][AEF][2Nal][Thp]K(Ac)N[3Pal][Sar]-NH2 (disulfide 1-6; SMILES CC(=O)NCCCC[C@@H]1NC(=O)[C@H](Cc2c[nH]c3c(-c4ccccc4)cccc23)NC(=O)[C@H]([C@@H](C)O)NC(=O)[C@H](CC(N)=O)NC(=O)[C@@H](NC(C)=O)C(C)(C)SSC(C)(C)[C@@H](C(=O)N[C@@H](Cc2ccc(OCCN)cc2)C(=O)N[C@@H](Cc2ccc3ccccc3c2)C(=O)NC2(C(=O)N[C@@H](CCCCNC(C)=O)C(=O)N[C@@H](CC(N)=O)C(=O)N[C@@H](Cc3cccnc3)C(=O)N(C)CC(N)=O)CCOCC2)NC1=O) [Peptide No. 117]		20 pM
Ac-[Pen]NT[Trp(5-CN)]K(Ac)[Pen][AEF][2Nal][Thp]EN[3Pal][Sar]-NH2 (disulfide 1-6 (inferred)) [Peptide No. 154]		> 10 nM
Ac-[Pen]NT[Trp(5-Ph)]K(Ac)[Pen][AEF][2Nal][Thp]EN[3Pal][Sar]-NH2 (disulfide 1-6 (inferred)) [Peptide No. 150]		> 10 nM
Ac-[dR][Pen]NT[Trp(7-Me)]K(Ac)[Pen][AEF][2Nal][Thp]ENN[dNMeY]-NH2 (disulfide 2-7) [Peptide No. 88]	> 2 µM	

Molecular target: T1, human IL-23R
Assay: cell-based or functional assay
Remark: another data set of the same source

Binder	PBMC pSTAT3 IC50 [pM]
Ac-[dR][Pen]NT[Trp(7-Me)]K(Ac)[Pen][AEF][2Nal][Ac5c]EN[3Pal][Sar]-NH2 (disulfide 2-7; SMILES CC(=O)NCCCC[C@@H]1NC(=O)[C@H](Cc2c[nH]c3c(C)cccc23)NC(=O)[C@H]([C@@H](C)O)NC(=O)[C@H](CC(N)=O)NC(=O)[C@@H](NC(=O)[C@@H](CCCNC(=N)N)NC(C)=O)C(C)(C)SSC(C)(C)[C@@H](C(=O)N[C@@H](Cc2ccc(OCCN)cc2)C(=O)N[C@@H](Cc2ccc3ccccc3c2)C(=O)NC2(C(=O)N[C@@H](CCC(=O)O)C(=O)N[C@@H](CC(N)=O)C(=O)N[C@@H](Cc3cccnc3)C(=O)N(C)CC(N)=O)CCCC2)NC1=O) [Peptide No. 235]	10

Molecular target: T2, interleukin-23 receptor (IL-23R) (human, UniProt Q5VWK5 24-629)
T2 sequence (looked up): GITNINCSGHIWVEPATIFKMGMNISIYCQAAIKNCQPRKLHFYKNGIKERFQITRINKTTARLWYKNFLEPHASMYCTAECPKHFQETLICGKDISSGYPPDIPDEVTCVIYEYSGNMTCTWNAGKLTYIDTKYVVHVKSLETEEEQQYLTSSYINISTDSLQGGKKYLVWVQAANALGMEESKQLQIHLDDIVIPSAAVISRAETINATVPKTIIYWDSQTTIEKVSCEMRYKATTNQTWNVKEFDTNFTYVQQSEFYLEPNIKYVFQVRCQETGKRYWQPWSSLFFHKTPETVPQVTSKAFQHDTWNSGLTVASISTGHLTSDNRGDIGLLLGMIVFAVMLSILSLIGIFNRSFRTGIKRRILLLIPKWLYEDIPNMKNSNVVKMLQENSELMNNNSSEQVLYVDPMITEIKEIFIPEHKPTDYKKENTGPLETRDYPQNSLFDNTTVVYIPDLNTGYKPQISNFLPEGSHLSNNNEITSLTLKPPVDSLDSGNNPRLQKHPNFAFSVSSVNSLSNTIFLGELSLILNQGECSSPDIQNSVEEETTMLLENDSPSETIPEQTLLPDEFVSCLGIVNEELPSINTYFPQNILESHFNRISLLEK
Assay: cell-based or functional assay

Binder	IC50, NK Cell Assay (IFNγ in supernatant of human NK cells stimulated with IL-23 and IL-18) [nM]
Ac-[Pen]NT[Trp(7-Me)]K(Ac)[Pen][AEF][2Nal][Thp]EN[3Pal][dNMeY]-NH2 (disulfide 1-6; SMILES CC(=O)NCCCC[C@@H]1NC(=O)[C@H](Cc2c[nH]c3c(C)cccc23)NC(=O)[C@H]([C@@H](C)O)NC(=O)[C@H](CC(N)=O)NC(=O)[C@@H](NC(C)=O)C(C)(C)SSC(C)(C)[C@@H](C(=O)N[C@@H](Cc2ccc(OCCN)cc2)C(=O)N[C@@H](Cc2ccc3ccccc3c2)C(=O)NC2(C(=O)N[C@@H](CCC(=O)O)C(=O)N[C@@H](CC(N)=O)C(=O)N[C@@H](Cc3cccnc3)C(=O)N(C)[C@H](Cc3ccc(O)cc3)C(N)=O)CCOCC2)NC1=O) [Peptide No. 121 (SEQ ID NO: 121)]	0.04

— patent US20210261622A1 (Janssen / Centocor, published 2021)
